Measurements: patent US11098102B2, “Insulin conjugates” (SANOFI, priority 2018, dated 2021)

Tests used:
[1] = biological target: T1, insulin receptor isoform B (IR-B) (Homo sapiens, UniProt P06213); assay: Insulin receptor binding affinity assay of insulin analogs (Example 8A, SPA competition binding); design: expressed in transfected cells; host or cells: CHO cells overexpressing the IR; isolated plasma membranes; conditions: relative to human insulin; a value of 0 means below the detection limit
Protocol: Methods for determining the binding affinity of an insulin analog to an insulin receptor are well known in the art. […] The insulin receptor can be present in a membrane of a cell, e.g. of CHO (Chinese Hamster Ovary) cell, which overexpresses a recombinant insulin receptor. In an embodiment, the insulin receptor binding affinity is determined as described in the Examples section.
Insulin receptor binding affinity for the analogs listed in Table 4 was determined as described in Hartmann et al. (Effect of the long-acting insulin analogs glargine and degludec on cardiomyocyte cell signaling and function. Cardiovasc Diabetol. 2016; 15:96). Isolation of insulin receptor embedded plasma membranes (M-IR) and competition binding experiments were performed as previously described (Sommerfeld et al., PLoS One. 2010; 5 (3): e9540). Briefly, CHO-cells overexpressing the IR were collected and re-suspended in ice-cold 2.25 STM buffer (2.25 M sucrose, 5 mM Tris-HCl pH 7.4, 5 mM MgCl2, complete protease inhibitor) and disrupted using a Dounce homogenizer followed by sonication. The homogenate was overlaid with 0.8 STM buffer (0.8 M sucrose, 5 mM Tris-HCl pH 7.4, 5 mM MgCl2, complete protease inhibitor) and ultra-centrifuged for 90 min at 100,000 g. Plasma membranes at the interface were collected and washed twice with phosphate buffered saline (PBS). The final pellet was re-suspended in dilution buffer (50 mM Tris-HCl pH 7.4, 5 mM MgCl2, complete protease inhibitor) and again homogenized with a Dounce homogenizer. Competition binding experiments were performed in a binding buffer (50 mM Tris-HCl, 150 mM NaCl, 0.1% BSA, complete protease inhibitor, adjusted to pH 7.8) in 96-well microplates. In each well 2 μg isolated membrane was incubated with 0.25 mg wheat germ agglutinin polyvinyltoluene polyethylenimine scintillation proximity assay (SPA) beads. […] The radioactivity was measured at equilibrium in a microplate scintillation counter (Wallac Microbeta, Freiburg, Germany).”

[2] = biological target: Insulin degrading enzyme, IDE (Homo sapiens, UniProt P14735); assay: In vitro proteolytic stability against insulin degrading enzyme (Example 9); format: in vitro ADME; conditions: 37° C., 2 μM
Protocol: (§1) The stability determination was done using appropriate time points (for SIF and SGF 15, 30, 60, 120 and 240 minutes; for proteases 15, 30, 60 and 120 minutes). The incubation was done at 37° C. and the % of remaining parent compound was calculated in reference to a TO time point.
(§2) For the determination of the parent compound an appropriate bioanalytical LC-MS/MS or LC-HRMS method was used, using the supernatant, after protein precipitation with ethanol (1 eq. v/v) and a centrifugation step.
(§3) Compounds were dissolved in diluted hydrochloric acid at a final concentration of 40 μM. The compound concentration in the assay was 2 μM. A 1:20 dilution of the working solution was done into the protease buffer and samples are then incubated at 37° C., under stirring. At the appropriate time point and aliquot was taken, the reaction was quenched ethanol (1 eq. v/v), than centrifuged. The supernatant was analyzed.

α-Chymotrypsin = α-Chymotrypsin (Bos taurus, UniProt P00766); assay: In vitro proteolytic stability against α-chymotrypsin (Example 9); format: in vitro ADME; conditions: 37° C., 2 μM
Protocol: as §1, §2, §3

[3] = biological target: T2, simulated gastric fluid (pepsin) (Sus scrofa, UniProt P00791); assay: In vitro stability in simulated gastric fluid (Example 9); format: in vitro ADME, porcine; conditions: 37° C., 2 μM
T2 construct: from tissue; host or cells: porcine stomach mucosa
Protocol: Two grams of sodium chloride and 3.2 g of purified pepsin (from porcine stomach mucosa, with an activity of 800 to 2500 units per mg of protein) were dissolved in 7.0 ml of hydrochloric acid. The volume was adjusted with water up to 1000 ml.
as §1, §2, §3

Cathepsin D = Cathepsin D (Homo sapiens, UniProt P07339); assay: In vitro proteolytic stability against cathepsin D (Example 9); format: in vitro ADME; conditions: 37° C., 2 μM
Protocol: as §1, §2, §3

[4] = biological target: T3, immobilized human serum albumin (Homo sapiens, UniProt P02768); assay: Albumin binding: affinity chromatography on columns with immobilized human serum albumin (net retention time); conditions: isolated binders; HSA column 25° C., PBS pH 7.4/isopropanol gradient
T3 construct: purchased Chiralpak (Chiraltech) 34712
Protocol: In order to identify suitable binder molecules, which when bound to a peptide, such as an insulin, are able to improve the half-life in plasma and to prolong the profile of action, a system was established based on affinity chromatography with serum albumin columns, i.e. columns with immobilized serum albumin.
The net retention time of the binders (samples) was calculated according to the following formula: Net retention time=RetTimeSample−RetTimet0 marker
• Instrument: Waters Alliance 2795/Waters PDA 2996 or Waters H-Class UPLC equipped with a Waters Acquity photodiode-array detector • Software: Waters Empower 3 • Column: […]® HSA 50×4 mm; 5 μm Particle size • Chiraltech Order Numbers: HSA: 34712 • Eluent A: Phosphate Buffer saline (PBS) at pH=7.4 • Gibco PBS pH7.4 (10×) Phosphate Buffered Saline 500 ml; • Order Number: 70011-036 (500 ml) • Eluent B: Isopropanol • Fisher Order Number: A461-1 (10 • Gradient:
• Column temperature: 25° C. • Flow rate: 1.0 ml/min • Detection: λ=220 nm • Injection volume: 20 μL • Sample Conc.: 1 mg/ml insulin solution in PBS for insulin samples • 5 μL of 10 mM DMSO stock solution (DMSO evaporated and re-dissolved in 200 μL i-propanol/water 1:1 v/v) for isolated binder samples (250 μM, 0.2 mg/ml at 800 Da MolWeight) • t0 marker Sodium Nitrate (NaNO3) solution in water, 0.05 mg/ml • Diluted from aqueous 1 mg/ml stock solution (Fluka Order Number: 74246-100ML) • Reported Value Net retention time of sample: RetTime Sample−RetTime t0 marker
Affinity chromatography was carried out i) for insulin conjugates according to Examples 3.3 and 3.4 on a Waters Alliance Separation Module 2695 equipped with a Waters photodiode-array detector 2996 or Waters H-Class UPLC equipped with a Waters Acquity photodiode-array detector and ii) for isolated binders according to Example 2.11 on a Waters Alliance Separation Module 2795 equipped with a Waters photodiode-array detector 2996 or Waters H-Class UPLC equipped with a Waters Acquity photodiode-array detector.
Columns with immobilized human serum albumin (50×4 mm; 5 μm particle size) were purchased from Chiralpak and used for separations.
The columns with immobilized serum albumin were kept at 25° C. during the LC run, UV detection was carried out at 220 nm and injection volume was 20 μL.
The net retention time of the samples was reported according to Net retention time=RetTime Sample−RetTime t0 marker

[5] = biological target: T1, insulin receptor isoform B (IR-B); assay: Insulin receptor autophosphorylation assay (In-Cell Western, CHO cells, Example 8B); format: cell-based; design: expressed in transfected cells; host or cells: CHO cells; conditions: relative to human insulin

T2 sequence (P00791 60-385): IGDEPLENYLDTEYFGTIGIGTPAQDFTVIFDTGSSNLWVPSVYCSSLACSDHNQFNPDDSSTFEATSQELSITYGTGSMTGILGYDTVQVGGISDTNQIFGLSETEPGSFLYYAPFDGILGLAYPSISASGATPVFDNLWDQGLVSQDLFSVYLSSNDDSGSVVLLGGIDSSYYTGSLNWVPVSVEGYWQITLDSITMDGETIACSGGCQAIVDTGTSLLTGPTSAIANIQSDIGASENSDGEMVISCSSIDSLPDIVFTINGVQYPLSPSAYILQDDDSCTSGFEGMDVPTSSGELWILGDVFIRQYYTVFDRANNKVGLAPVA
T3 sequence (P02768 25-609): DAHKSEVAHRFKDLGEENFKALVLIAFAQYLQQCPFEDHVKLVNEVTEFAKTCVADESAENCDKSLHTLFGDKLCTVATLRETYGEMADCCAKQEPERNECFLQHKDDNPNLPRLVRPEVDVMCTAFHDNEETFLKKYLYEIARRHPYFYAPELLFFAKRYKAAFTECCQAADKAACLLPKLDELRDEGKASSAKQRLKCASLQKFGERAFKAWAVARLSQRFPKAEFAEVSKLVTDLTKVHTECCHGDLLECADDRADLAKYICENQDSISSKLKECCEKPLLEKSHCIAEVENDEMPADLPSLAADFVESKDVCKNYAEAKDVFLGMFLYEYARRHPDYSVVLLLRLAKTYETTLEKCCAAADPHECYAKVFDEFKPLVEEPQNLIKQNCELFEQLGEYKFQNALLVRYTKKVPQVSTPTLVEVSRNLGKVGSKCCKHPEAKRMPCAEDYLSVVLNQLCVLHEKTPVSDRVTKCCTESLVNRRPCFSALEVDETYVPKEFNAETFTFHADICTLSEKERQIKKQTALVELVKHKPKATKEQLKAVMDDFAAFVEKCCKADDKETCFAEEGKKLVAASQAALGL
Chain of Cathepsin D (P07339 65-412, species assumed): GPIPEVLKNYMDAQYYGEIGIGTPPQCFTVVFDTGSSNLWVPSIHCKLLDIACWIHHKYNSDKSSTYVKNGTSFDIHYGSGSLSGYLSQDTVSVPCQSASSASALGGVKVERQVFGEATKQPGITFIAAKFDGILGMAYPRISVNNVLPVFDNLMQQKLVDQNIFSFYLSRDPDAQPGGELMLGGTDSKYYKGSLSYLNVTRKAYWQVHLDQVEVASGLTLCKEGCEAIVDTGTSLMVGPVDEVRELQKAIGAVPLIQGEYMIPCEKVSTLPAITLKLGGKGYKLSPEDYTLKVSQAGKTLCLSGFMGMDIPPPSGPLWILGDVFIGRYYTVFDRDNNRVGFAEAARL
T1 sequence (P06213 28-758 limits assumed): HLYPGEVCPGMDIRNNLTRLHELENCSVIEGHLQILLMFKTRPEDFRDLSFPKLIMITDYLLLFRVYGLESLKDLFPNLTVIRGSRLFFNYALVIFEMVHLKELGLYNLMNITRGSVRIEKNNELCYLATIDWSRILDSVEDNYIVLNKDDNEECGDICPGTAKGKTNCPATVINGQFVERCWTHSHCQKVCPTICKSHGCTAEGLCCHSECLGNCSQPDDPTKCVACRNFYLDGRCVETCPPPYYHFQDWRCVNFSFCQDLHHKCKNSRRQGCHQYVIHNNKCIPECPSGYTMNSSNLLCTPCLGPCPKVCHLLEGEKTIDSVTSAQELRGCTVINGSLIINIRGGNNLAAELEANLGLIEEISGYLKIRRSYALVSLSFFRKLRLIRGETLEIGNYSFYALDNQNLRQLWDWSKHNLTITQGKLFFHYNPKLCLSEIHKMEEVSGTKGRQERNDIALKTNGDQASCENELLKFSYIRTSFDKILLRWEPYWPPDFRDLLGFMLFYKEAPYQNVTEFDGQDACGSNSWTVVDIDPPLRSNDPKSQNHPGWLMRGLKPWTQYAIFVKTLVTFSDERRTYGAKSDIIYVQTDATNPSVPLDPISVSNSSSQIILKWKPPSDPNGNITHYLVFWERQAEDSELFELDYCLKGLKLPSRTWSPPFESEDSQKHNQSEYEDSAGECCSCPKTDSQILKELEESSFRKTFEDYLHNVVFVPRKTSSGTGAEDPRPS
T1 sequence (P06213 763-1382 limits assumed): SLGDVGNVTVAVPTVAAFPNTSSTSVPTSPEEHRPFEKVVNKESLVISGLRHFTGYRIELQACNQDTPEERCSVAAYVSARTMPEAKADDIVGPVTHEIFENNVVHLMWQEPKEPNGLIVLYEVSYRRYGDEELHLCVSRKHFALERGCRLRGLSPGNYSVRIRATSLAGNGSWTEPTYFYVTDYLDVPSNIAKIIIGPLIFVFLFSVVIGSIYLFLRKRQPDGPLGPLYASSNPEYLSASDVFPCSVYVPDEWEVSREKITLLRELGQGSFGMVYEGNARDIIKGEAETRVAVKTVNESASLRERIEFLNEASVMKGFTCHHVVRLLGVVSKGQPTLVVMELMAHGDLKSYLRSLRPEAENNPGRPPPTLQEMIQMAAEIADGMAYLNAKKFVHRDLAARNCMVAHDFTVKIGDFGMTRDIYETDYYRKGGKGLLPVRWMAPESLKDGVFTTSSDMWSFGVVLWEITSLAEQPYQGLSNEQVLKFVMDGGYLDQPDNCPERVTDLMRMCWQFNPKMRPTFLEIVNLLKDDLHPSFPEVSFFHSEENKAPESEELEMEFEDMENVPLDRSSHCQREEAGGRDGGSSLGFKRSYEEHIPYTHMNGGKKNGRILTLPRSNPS

Row | Structure (SMILES) | Insulin-receptor binding affinity [1] | Percent remaining insulin analog, Insulin degrading enzyme, IDE (30 minutes) [2] | Percent remaining insulin analog, α-Chymotrypsin (120 minutes) (α-Chymotrypsin) | Percent remaining insulin analog, Gastric fluid (30 minutes) [3] | Percent remaining insulin analog, Cathepsin D (30 minutes) (Cathepsin D) | NRT [min] (net retention time on columns with immobilized human serum albumin) [4] | autophosphorylation activity [5]
1 | O=C(O)CCCCCCCCCCCCCc1ccc(CCOc2ccc(S(=O)(=O)Nc3ncc(C(=O)NCCOCCOCC(=O)NCCOCCOCC(=O)O)cn3)cc2)cc1 [Binder 12] | 0.01 | 11% | 31% | 44% | 43% | 14.95 min | 0.06
2 | O=C(O)CCCCCCCCCCCc1cc(Oc2ccc(S(=O)(=O)Nc3ccc(C(=O)NCCOCCOCC(=O)NCCOCCOCC(=O)O)cn3)cc2)ccc1F [Binder 24] | 0.01 | 86% | 40% | 52% | 59% | 15.76 min | 0.04
3 | O=C(O)CCCCCCCCCCCCCCCOc1ccc(S(=O)(=O)Nc2ncc(C(=O)NCCOCCOCC(=O)NCCOCCOCC(=O)O)cn2)cc1F [Binder 38] | 0 | 86% | 34% | 36% | 62% | 13.53 min | 0.03
4 | O=C(O)CCCCCCCCCc1ccc(OCc2ccc(S(=O)(=O)Nc3ccc(C(=O)NCCOCCOCC(=O)NCCOCCOCC(=O)O)cc3)cc2)cc1 [Binder 2] | 1.05 | 81% | 35% | 0% | 0% | 17.88 min | 0.87
5 | O=C(O)CCCCCCCCCCCCCCOc1ccc(S(=O)(=O)Nc2ccc(C(=O)NCCOCCOCC(=O)NCCOCCOCC(=O)O)cn2)cc1 [Binder 7] | 0.05 | 2% | 58% | 30% | 52% | 14.65 min | 0.2
6 | O=C(O)CCCCCCCCCCCCCc1cc(Oc2ccc(S(=O)(=O)Nc3ccc(C(=O)NCCOCCOCC(=O)NCCOCCOCC(=O)O)cn3)cc2)ccc1F [Binder 22] | 0.01 | 77% | 99% | 52% | 20% | 15.55 min | 0.04
